Data on eight molecules can be found in patent US20180177850A1 (HANMI PHARM, published 2018).

Bridges are numbered along the chain shown (N, C = ends). Where no end group is shown, it is not given here. [ ]: non-standard residue; d: D form. The star is where a group is joined. Acetyl(2-(4-imidazolyl)) = O=C(Cc1c[nH]cn1)*; Aib = CC(C)(N)C(=O)O

The chains are these.
B1: oxyntomodulin derivative of SEQ ID NO: 3 (peptide)
peptide: [Acetyl(2-(4-imidazolyl))]SQGTFTSDYSKYLDERRAQDFVAWLKNTGPSSGAPPPS
B2: oxyntomodulin derivative of SEQ ID NO: 8 (peptide)
peptide: [Acetyl(2-(4-imidazolyl))]SQGTFTSDLSRQLEEEAVRLFIEWLMNK
B3: oxyntomodulin derivative of SEQ ID NO: 18 (peptide)
peptide: [Acetyl(2-(4-imidazolyl))]SQGTFTSDYSRYLDEEAVRLFIEWIRNGGPSSGAPPPSK
B4: oxyntomodulin derivative of SEQ ID NO: 33 (peptide)
peptide: H[Aib]QGTFTSDYAKYLDEKRAKEFVQWLMNTC
modifications: bridge 16-20
B5: oxyntomodulin derivative of SEQ ID NO: 25 (peptide)
peptide: H[Aib]QGTFTSDYSKYLDEKRAKEFVQWLMNTC
modifications: bridge 16-20
B6: oxyntomodulin derivative of SEQ ID NO: 11 (peptide)
peptide: [Acetyl(2-(4-imidazolyl))]GEGTFTSDLSRQMEEEAVRLFIEWAAHSQGTFTSDYSRYLDK
B7: oxyntomodulin derivative of SEQ ID NO: 6 (peptide)
peptide: [Acetyl(2-(4-imidazolyl))]GEGTFTSDLSRQMEEEAVRLFIEWAAHSQGTFTSDYSKYLD
B8: oxyntomodulin derivative of SEQ ID NO: 34 (peptide)
peptide: Y[Aib]QGTFTSDYSKYLDEKRAKEFVQWLMNTC
modifications: bridge 16-20

Chain of human glucagon receptor (P47871 26-477): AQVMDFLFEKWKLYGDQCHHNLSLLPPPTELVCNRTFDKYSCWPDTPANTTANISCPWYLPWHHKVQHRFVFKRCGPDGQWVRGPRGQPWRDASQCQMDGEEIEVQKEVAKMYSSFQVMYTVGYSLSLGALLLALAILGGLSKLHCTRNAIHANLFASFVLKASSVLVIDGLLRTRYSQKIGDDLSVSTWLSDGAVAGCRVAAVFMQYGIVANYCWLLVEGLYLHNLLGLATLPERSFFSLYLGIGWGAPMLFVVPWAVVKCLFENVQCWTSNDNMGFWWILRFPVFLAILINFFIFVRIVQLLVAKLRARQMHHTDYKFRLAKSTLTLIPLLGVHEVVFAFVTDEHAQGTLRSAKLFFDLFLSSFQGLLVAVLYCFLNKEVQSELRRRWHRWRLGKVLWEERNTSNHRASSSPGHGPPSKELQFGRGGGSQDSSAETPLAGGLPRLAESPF
Chain of human glucagon receptor (human) (P47871 26-477): as above

The first test concerns the target human glucagon receptor (human) (UniProt P47871). Briefly: cell-based or functional assay.
B1 returned an EC50 (cAMP, CHO/GCGR) of 638 nM. With B2, the EC50 (cAMP, CHO/GCGR) is greater than 1000 nM. As to B3, the EC50 (cAMP, CHO/GCGR) is greater than 1000 nM.

For another test, the target named is human GLP-1 receptor (human) (UniProt P43220). Briefly: cell-based or functional assay.
Chain of human GLP-1 receptor (human) (P43220 24-463): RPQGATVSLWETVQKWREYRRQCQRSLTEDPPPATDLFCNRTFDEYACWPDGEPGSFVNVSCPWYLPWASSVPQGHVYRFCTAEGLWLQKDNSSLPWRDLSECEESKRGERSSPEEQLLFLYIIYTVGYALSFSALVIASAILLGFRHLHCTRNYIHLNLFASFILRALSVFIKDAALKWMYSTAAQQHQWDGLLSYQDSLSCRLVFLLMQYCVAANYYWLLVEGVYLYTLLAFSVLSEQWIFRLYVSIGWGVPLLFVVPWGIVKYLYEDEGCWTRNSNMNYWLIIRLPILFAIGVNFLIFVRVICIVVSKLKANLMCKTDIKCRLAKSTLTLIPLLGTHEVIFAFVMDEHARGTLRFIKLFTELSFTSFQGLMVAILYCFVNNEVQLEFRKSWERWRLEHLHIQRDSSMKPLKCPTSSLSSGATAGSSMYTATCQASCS
For the molecule B1, the EC50 (cAMP, CHO/GLP-1R) is greater than 1000 nM. Consider B2, for which the EC50 (cAMP, CHO/GLP-1R) amounted to 420 nM. Same read-out and setting: then B3, with 96.3 nM.

The next test has as its target human glucagon receptor (human, UniProt P47871 26-477). Briefly: cell-based or functional assay.
As to B4, the “EC50 (cAMP, CHO/GCGR)” value amounted to 80.2 nM. In the case of B5, the “EC50 (cAMP, CHO/GCGR)” value was determined as 1.3 nM. With B6, the “EC50 (cAMP, CHO/GCGR)” value was greater than 1000 nM. For B7, the “EC50 (cAMP, CHO/GCGR)” value was greater than 1000 nM.

With B8, the “EC50 (cAMP, CHO/GCGR)” value worked out at 1.04 nM.

The next test addresses human GLP-1 receptor (human, UniProt P43220 24-463). Briefly: cell-based or functional assay.
Consider B4, for which the “EC50 (cAMP, CHO/GLP-1R)” value worked out at 2.2 nM.

On to B5, for which the “EC50 (cAMP, CHO/GLP-1R)” value came out at 1.9 nM. On to B6, for which the “EC50 (cAMP, CHO/GLP-1R)” value was greater than 1000 nM. B8: the “EC50 (cAMP, CHO/GLP-1R)” value was found to be 12.5 nM.
